According to patent US9469685 (UNIVERSITY OF CHICAGO, dated 2016):

Target: HA of the 1918 pandemic strain, A/Brevig Mission/1/1918 (H1N1) (influenza A virus A/Brevig …, UniProt Q9WFX3 18-529)
Assay: ELISA (FIG. 3B, FIG. 8A)

Sequence of HA of the 1918 pandemic strain, A/Brevig Mission/1/1918 (H1N1) (Q9WFX3 18-529 limits assumed): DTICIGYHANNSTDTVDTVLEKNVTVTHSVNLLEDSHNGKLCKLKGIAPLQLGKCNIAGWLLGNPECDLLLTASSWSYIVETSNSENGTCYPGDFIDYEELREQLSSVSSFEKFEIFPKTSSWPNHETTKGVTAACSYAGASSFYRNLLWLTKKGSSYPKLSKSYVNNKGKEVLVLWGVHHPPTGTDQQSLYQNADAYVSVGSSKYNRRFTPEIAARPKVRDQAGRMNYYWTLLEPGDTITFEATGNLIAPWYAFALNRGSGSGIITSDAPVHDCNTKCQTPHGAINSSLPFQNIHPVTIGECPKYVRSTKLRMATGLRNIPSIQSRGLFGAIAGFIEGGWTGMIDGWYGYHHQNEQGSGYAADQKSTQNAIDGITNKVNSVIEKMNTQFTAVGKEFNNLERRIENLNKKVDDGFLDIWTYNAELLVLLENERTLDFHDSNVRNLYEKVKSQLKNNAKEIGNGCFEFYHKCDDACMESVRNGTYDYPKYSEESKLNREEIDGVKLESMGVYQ

B1: 70-5B03 (antibody, V domains shown)
VH: QVQLVQSGAEVKKPGSSVKVSCKASGGTFRNFAVSWVRQAPGQGPEWMGGIIAIFGTAKYAQKFQGRVTISADESTRIVQMELSSLRSDDTAIYYCASSSGSYYGDYFDYWGQGTLVTVSS
VL: EIVMTQSPATLSVSPGERATLSCRASQSVSSNLAWYQQTPGQAPRLLIYAASSRATGIPARFSGSGSGTEFTLSISSLQPEDFAVYYCQQYNNWPRTFGQGTKVEIK
  binding result: binds
